Laboratory results taken from paper PMC5895073, “Cell polarity protein Spa2 coordinates Chs2 incorporation at the division site in budding yeast” (PLoS Genetics, 2018).

Target: T1, Strep-tag-Chs2-V377I-215-629 (S. cerevisiae, UniProt P14180 215-629, V377I)
T1 construct: Chs2 (chitin synthase II), S. cerevisiae, residues 215-629 with the hypermorphic change V377I; also called Strep-tag-Chs2-215-629-V377I; source: E. coli Rosetta, in cell extract
T1 sequence (looked up): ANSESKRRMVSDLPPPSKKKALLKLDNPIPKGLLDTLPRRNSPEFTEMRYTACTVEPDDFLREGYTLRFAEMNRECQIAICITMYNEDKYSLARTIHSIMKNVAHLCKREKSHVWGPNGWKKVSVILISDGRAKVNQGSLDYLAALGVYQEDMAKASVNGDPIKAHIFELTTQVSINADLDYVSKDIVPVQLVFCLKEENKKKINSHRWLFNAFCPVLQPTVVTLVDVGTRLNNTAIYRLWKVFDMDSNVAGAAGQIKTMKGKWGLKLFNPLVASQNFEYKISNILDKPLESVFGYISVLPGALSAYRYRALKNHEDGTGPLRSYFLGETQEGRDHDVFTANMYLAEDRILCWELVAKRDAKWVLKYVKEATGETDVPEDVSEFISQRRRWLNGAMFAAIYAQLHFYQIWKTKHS
Test: pull-down; pairs of E. coli cultures mixed, one cell extract; Strep-tagged protein isolated on Strep-Tactin Superflow resin, eluted with 2.5 mM d-desthiobiotin; immunoblot with anti-Strep and anti-His
Settings: partners not purified

B1: 6His-tagged-Inn1 (natural protein, S. cerevisiae, UniProt P53901 1-409, looked up)
chain: MSEEVWNGNQGILSVYVSKARDLPNLNKLDKQNVMLRLRIAHMTRASNTLHRAGQNPVFHYLEKFDITPEIKPLMYVEVYCDRRKKSPLPIGRCEIDLLNAIRADPKEGYCTWYELKRSGDEFAGTIFIELTFTPKVPRLNRDDLNKEMDRLDSSMAMRPIPPLPTESEYDYVHGSTMRQITPQCVSTSHEDKDEGQPYRNGNVFSMSSKSDTAVLANSNDPIILPPTFSASMGTTSTLETNDTAISNTSNTKFHFANLRKLKEKINIFKNPDSSTNNCQNESNKVDIEALQKAIGVTSLSYDEDDDDDDENDAFYSSSHRVSHNYNQPPLPPIPTRDDMSNYSSSRNTPLVRRDRPSRLDSSSPNSHPHPSGLNSPKLPPLPTTSNSNFNSRKNSMSPTRKRPPPRLS
notes: Inn1, S. cerevisiae; also called 6His-Inn1; source: E. coli Rosetta, in cell extract
- amount of Inn1 co-purified, fold over that with Strep-tag-Chs2-215-629: ~3 fold
